These results are taken from patent publication US20130131319A1 (Chugai, published 2013).

Test [1] concerns the target T1, soluble human plexin A1 (hsPlexin A1) (human, UniProt Q9UIW2 27-1243).
T1 construct: range 27-1243
The test can be described thus: Biacore, antibody on protein A/G, hsPlexin A1 analyte, 37C, pH 7.4.
Protocol: (§1) Assay was carried out using 10 mmol/l ACES/150 mmol/l NaCl containing 0.05% Surfactant P20 (pH 7.4 and pH 6.0) as a running buffer. […] Assays were carried out at 37 degrees C. The assay results were analyzed using Biacore T100 Evaluation Software (GE Healthcare), and the association rate constant, ka (1/Ms), and the dissociation rate constant, kd (1/s), were calculated from the assay results. Then the KD (M) was calculated from ka and kd (Table 15). Furthermore, the pH-dependent binding was evaluated to calculate the KD ratio between pH 7.4 and pH 6.0 for each antibody.

The target in test [2] is T1, soluble human plexin A1 (hsPlexin A1). The test can be described thus: Biacore, antibody on protein A/G, hsPlexin A1 analyte, 37C, pH 6.0. (In SPR one partner is held on a chip, and binding of the other changes the refractive index at the surface.)
Protocol: as §1
The target of test [3] is T2, soluble human FcRn (complex of FcRn and beta2-microglobulin) (human, UniProt P55899 24-297; P61769 21-119).
T2 construct: Secreted from HEK293H
The test can be described thus: Biacore steady-state, antibody immobilized, pH 6.0, 25C.
Protocol: (§2) The antibodies were tested as a test substance after direct immobilization onto Series S Sensor Chip CM5. Using an amino-coupling kit according to the supplier's instruction manual, the antibodies were immobilized onto Sensor Chip so as to secure an immobilization amount of 500 RU. The running buffer used was 50 mmol/l Na-phosphate/150 mmol/l NaCl containing 0.05% (v/v %) Surfactant P20 (pH 6.0).
(§3) With the prepared sensor chips, assay was carried out using as a running buffer, 50 mmol/l Na-phosphate/150 mmol/l NaCl containing 0.05% Surfactant P20 (pH 6.0) or 50 mmol/l Na-phosphate/150 mmol/l NaCl containing 0.05% Surfactant P20 (pH 7.4). Assays were carried out exclusively at 25 degrees C. The diluted human FcRn solutions and running buffer as a reference solution were injected at a flow rate of 5 microliter/min for ten minutes to allow for human FcRn to interact with the antibody on the chip. Next, the running buffer was injected at a flow rate of 5 microliter/min for one minute to monitor the dissociation of FcRn. […]
(§4) The assay results were analyzed using Biacore T100 Evaluation Software (Ver. 2.0.1). By a steady-state affinity method, the dissociation constant (KD) was calculated from the assay results at six different FcRn concentrations.

Test [4] deals with T2, soluble human FcRn (complex of FcRn and …). Briefly: Biacore steady-state, antibody immobilized, pH 7.4, 25C; pH 7.4.
Protocol: as §2, §3, §4
Test [5] shares this target. The test can be described thus: Biacore steady-state, antibody immobilized, pH 6.0, 25C; pH 6.0.
Protocol: as §2, §3, §4
Test [6] has the same target. Briefly: Biacore steady-state, antibody immobilized, pH 7.4, 25C.
Protocol: as §2, §3, §4
Test [7] shares this target. Briefly: Biacore pH 7.0.
Protocol: (§5) The binding between antibody and human FcRn was kinetically analyzed using Biacore T100 (GE Healthcare). […] An appropriate amount of protein L (ACTIGEN) was immobilized onto Sensor chip CM4 (GE Healthcare) by the amino coupling method, and the chip was allowed to capture an antibody of interest. Then, diluted FcRn solutions and running buffer (as a reference solution) were injected to allow human FcRn to interact with the antibody captured on the sensor chip. The running buffer used comprised 50 mmol/l sodium phosphate, 150 mmol/l NaCl, and 0.05% (w/v) Tween20 (pH 7.0). FcRn was diluted using each buffer. The chip was regenerated using 10 mmol/l glycine-HCl (pH 1.5). Assays were carried out exclusively at 25 degrees C. The association rate constant ka (1/Ms) and dissociation rate constant kd (1/s), both of which are kinetic parameters, were calculated based on the sensorgrams obtained in the assays, and KD (M) of each antibody for human FcRn was determined from these values. Each parameter was calculated using Biacore T100 Evaluation Software (GE Healthcare).
For test [8] the target is unchanged. Briefly: Biacore pH 7.0. This is another data set of the same source.
Protocol: as §5
Test [9] shares this target. Briefly: Biacore pH 7.0. The source holds these as a separate data set.
Protocol: as §5
Test [10] shares this target. Briefly: Biacore pH 7.0. This is another data set of the same source.
Protocol: as §5
The target is the same in test [11]. The test can be described thus: Biacore pH 7.0 (Example 9 method).
Protocol: (§6) The binding between antibody and human FcRn was kinetically analyzed using Biacore T100 (GE Healthcare). An appropriate amount of protein L (ACTIGEN) was immobilized onto Sensor chip CM4 (GE Healthcare) by the amine-coupling method, and the chip was allowed to capture an antibody of interest. Then, diluted FcRn solutions and running buffer as a reference solution were injected to allow for human FcRn to interact with the antibody captured on the sensor chip. The running buffer used comprised 50 mmol/l sodium phosphate, 150 mmol/l NaCl, and 0.05% (w/v) Tween20 (pH 7.0). FcRn was diluted using each buffer. The chip was regenerated using 10 mmol/l glycine-HCl (pH 1.5). Assays were carried out at 25 degrees C.
(§7) KD (M) of each antibody was derived from the sensorgram data using Biacore T100 Evaluation Software (GE Healthcare), which simultaneously fits the association and dissociation phases of the sensorgrams and globally fits all curves in the working set. Sensorgrams were fit to 1:1 binding model, the “Langmuir binding” model, supplied by Biacore T100 Evaluation Software. For some of the binding interactions, KD was derived by nonlinear regression analysis of plots of Req, the equilibrium binding response, versus the log of the analyte concentration using an equilibrium-based approach.
Test [12] shares this target. The test can be described thus: Biacore pH 7.0 (Example 9 method). This is another data set of the same source.
Protocol: as §6, §7
Test [13] addresses T3, human IL-6 (TORAY) (human, UniProt P05231 30-212, limits assumed).
T3 construct: also called hIL-6
The test can be described thus: Biacore, antibody on protein A/G, IL-6 analyte, 37C, pH 7.4.
Protocol: (§8) Assay was carried out using 10 mmol/l ACES/150 mmol/l NaCl containing 0.05% Surfactant P20 (pH 7.4 and pH 6.0) as a running buffer. After antibodies were bound to recombinant proteinA/G (Thermo Scientific) immobilized on sensor chips using an amino-coupling method, appropriate concentrations of human IL-6 (TORAY) as an analyte were injected. Assays were carried out at 37 degrees C. The assay results were analyzed using Biacore T100 Evaluation Software (GE Healthcare), and the association rate constant, ka (1/Ms), and the dissociation rate constant, kd (1/s), were calculated from the assay results. […] Furthermore, the pH-dependent binding was evaluated to calculate the KD ratio between pH 7.4 and pH 6.0 for each antibody.

The target in test [14] is T3, human IL-6 (TORAY). Briefly: Biacore, antibody on protein A/G, IL-6 analyte, 37C, pH 5.5.
Protocol: as §8

Changes are numbered by the printed parent chain. Names and notes keep the numbering of the source.

T1 sequence (Q9UIW2 other isoform, or with tags, fused parts or gaps limits assumed): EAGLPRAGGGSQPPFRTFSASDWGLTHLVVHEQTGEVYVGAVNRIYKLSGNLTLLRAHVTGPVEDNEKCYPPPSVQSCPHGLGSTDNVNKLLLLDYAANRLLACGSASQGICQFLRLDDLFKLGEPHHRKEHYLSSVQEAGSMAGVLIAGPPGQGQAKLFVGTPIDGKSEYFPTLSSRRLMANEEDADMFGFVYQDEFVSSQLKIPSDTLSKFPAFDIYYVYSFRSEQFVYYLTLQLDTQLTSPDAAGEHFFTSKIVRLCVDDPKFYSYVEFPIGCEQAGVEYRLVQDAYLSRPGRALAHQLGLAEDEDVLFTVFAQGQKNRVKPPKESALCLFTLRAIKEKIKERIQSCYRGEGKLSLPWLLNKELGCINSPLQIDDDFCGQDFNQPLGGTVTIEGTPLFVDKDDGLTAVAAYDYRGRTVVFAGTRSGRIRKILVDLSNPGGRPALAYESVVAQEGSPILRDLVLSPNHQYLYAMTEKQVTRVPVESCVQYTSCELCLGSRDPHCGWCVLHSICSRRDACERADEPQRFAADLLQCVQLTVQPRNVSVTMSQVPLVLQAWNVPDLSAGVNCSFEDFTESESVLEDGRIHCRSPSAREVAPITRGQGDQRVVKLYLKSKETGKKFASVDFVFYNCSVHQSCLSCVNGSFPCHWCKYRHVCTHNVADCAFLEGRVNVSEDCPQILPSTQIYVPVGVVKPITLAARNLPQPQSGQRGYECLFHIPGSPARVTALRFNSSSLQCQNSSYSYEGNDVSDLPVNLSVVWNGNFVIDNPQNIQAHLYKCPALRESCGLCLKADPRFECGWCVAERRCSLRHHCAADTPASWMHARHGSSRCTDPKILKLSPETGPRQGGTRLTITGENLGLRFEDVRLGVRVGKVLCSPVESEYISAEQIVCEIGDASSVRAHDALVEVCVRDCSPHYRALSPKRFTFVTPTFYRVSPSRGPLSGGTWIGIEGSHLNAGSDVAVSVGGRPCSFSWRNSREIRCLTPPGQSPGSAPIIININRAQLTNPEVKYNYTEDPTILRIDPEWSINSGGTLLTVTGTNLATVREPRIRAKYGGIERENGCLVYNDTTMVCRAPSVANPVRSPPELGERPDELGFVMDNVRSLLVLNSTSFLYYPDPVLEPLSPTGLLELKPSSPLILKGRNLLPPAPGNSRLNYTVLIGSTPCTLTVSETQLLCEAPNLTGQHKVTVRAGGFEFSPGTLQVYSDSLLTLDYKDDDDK
T2 sequence (P55899 24-297 limits assumed, chain 1 of 2): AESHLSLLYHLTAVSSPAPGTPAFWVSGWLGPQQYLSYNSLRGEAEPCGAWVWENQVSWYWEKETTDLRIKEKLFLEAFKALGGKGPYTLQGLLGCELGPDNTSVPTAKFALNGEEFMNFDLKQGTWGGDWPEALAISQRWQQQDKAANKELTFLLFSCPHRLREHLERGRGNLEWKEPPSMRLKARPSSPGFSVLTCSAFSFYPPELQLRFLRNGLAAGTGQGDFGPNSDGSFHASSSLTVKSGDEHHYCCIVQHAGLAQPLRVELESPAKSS
T2 sequence (P61769 21-119 limits assumed, chain 2 of 2): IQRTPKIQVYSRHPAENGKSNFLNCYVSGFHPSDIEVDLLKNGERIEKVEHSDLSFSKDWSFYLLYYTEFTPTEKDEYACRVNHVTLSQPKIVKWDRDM

B1: PX141-IgG1 (antibody, V domains shown)
VH: QEQLEESGGGLVKPEGSLTLTCKASGFDFSSYYYMCWVRQAPGKGLEWIGCIVTGSYGRSWYASWAKGRFTITRSTSLNTVTLQLNSLTAADTATYFCARDPFVIASSHYQNLWGPGTLVTVSS
VL: ALVMTQTPSPVSAAVGGTVTISCQSSPNIYNNYLSWYQQKPGQPPKLLIYRASNLETGVPSRFSGSGSGTQFTLTISDVQCDDAATYYCAGYKSYDNDDNAFGGGTEVVVKR
notes: chimeric anti-plexin A1 antibody, pH-dependent
Consider B1, for which, in test [1], the Kd (commonly the free concentration of one partner at which half of the binding sites on the other are occupied at equilibrium, for simple one-to-one binding) was 4.2 nM; the koff – broadly, a measure of how fast the partners let go of each other – was found to be 0.00064 s⁻¹; the kon (commonly the rate constant with which the complex forms) is 150000 M⁻¹ s⁻¹. Further, in [2], binding was characterised by a dissociation constant (Kd) of 63 nM, the koff stood at 0.0049 s⁻¹ and the kon is 79000 M⁻¹ s⁻¹.

B2: PX268-IgG1 (antibody, V domains shown)
VH: QSLEESGGDLVKPGASLTLTCTASGFSFSSNYWIYWVRQAPGKGLEWIACIYIGSDSAYYASWAKGRFTISKTSSTTVTLQMTSLTAADTATYFCARWDNSGRALKLWGPGTLVTVSS
VL: QMLTQTASPVSAAVGGTVTIKCQSSQSVADNNHLSWYQQKPGQPPKLLIYFASTLASGVSSRFKGSGSGTQFTLTISDVQCDDAATYYCLGNYDCGSADCHAFGGGTEVVVKR
notes: chimeric anti-plexin A1 antibody
In [1], B2 showed a Kd of 5.4 nM, a koff of 0.00028 s⁻¹ and a kon of 52000 M⁻¹ s⁻¹. In test [2], this molecule came in with a Kd of 4.4 nM, a koff of 0.00027 s⁻¹ and a kon of 63000 M⁻¹ s⁻¹.

B3: Fv4-IgG1 (antibody)
heavy: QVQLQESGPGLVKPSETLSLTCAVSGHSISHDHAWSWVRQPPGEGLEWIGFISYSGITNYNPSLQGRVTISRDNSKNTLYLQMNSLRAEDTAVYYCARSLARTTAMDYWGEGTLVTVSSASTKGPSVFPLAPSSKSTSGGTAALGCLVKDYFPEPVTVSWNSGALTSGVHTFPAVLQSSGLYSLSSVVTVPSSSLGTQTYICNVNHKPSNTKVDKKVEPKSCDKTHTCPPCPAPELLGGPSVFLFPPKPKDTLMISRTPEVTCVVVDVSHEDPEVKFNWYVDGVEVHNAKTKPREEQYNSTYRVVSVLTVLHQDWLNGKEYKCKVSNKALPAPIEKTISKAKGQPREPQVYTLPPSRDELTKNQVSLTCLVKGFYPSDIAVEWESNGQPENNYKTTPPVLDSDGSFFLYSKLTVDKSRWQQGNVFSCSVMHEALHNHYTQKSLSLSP
light: DIQMTQSPSSLSASVGDSVTITCQASTDISSHLNWYQQKPGKAPELLIYYGSHLLSGVPSRFSGSGSGTDFTFTISSLEAEDAATYYCGQGNRLPYTFGQGTKVEIERTVAAPSVFIFPPSDEQLKSGTASVVCLLNNFYPREAKVQWKVDNALQSGNSQESVTEQDSKDSTYSLSSTLTLSKADYEKHKVYACEVTHQGLSSPVTKSFNRGEC
notes: VH3-IgG1 and VL3-CK; copies: 2 + 2
For the molecule B3, the Kd in test [3] came to 1990 nM.

B4: Fv4-IgG1-v1 (antibody)
heavy: QVQLQESGPGLVKPSETLSLTCAVSGHSISHDHAWSWVRQPPGEGLEWIGFISYSGITNYNPSLQGRVTISRDNSKNTLYLQMNSLRAEDTAVYYCARSLARTTAMDYWGEGTLVTVSSASTKGPSVFPLAPSSKSTSGGTAALGCLVKDYFPEPVTVSWNSGALTSGVHTFPAVLQSSGLYSLSSVVTVPSSSLGTQTYICNVNHKPSNTKVDKKVEPKSCDKTHTCPPCPAPELLGGPSVFLFPPKPKDTLYITREPEVTCVVVDVSHEDPEVKFNWYVDGVEVHNAKTKPREEQYNSTYRVVSVLTVLHQDWLNGKEYKCKVSNKALPAPIEKTISKAKGQPREPQVYTLPPSRDELTKNQVSLTCLVKGFYPSDIAVEWESNGQPENNYKTTPPVLDSDGSFFLYSKLTVDKSRWQQGNVFSCSVMHEALHNHYTQKSLSLSP
light: B3 light
notes: copies: 2 + 2
Consider B4, for which the Kd in test [4] was determined as 36.6 µM; in test [5], 320 nM.

B5: Fv4-IgG1-v2 (antibody)
heavy: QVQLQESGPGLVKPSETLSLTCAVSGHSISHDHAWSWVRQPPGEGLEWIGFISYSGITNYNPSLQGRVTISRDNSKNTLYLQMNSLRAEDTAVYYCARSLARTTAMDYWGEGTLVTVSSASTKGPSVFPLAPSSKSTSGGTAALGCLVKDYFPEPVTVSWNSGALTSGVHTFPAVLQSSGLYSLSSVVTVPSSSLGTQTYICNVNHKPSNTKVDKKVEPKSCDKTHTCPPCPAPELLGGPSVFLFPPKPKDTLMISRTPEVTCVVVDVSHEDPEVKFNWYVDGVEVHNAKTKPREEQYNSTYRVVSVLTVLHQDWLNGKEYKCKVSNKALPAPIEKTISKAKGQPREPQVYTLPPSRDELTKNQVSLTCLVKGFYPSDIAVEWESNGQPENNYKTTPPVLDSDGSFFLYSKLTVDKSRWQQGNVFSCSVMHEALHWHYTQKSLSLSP
light: B3 light
notes: copies: 2 + 2
Turning to B5, the Kd in test [6] is 11 µM; in test [3], 110 nM.

B6: IgG1-F162 (antibody)
heavy: B4 heavy with Y254W, T256S, E258T, M430Y, N436Y
light: not shown
notes: copies: 2 + 2
On to B6, for which the Kd in [7] was determined as 170 nM.

B7: IgG1-F403 (antibody)
heavy: B4 heavy with Y254M, T256S, E258T, P259V, T309A, M430E, N436W
light: not shown
notes: M428E as printed; may be a misprint of M428L; copies: 2 + 2
In test [8], B7 came in with a Kd of 51 nM.

B8: IgG1-F379 (antibody)
heavy: B4 heavy with S241K, Y254W, T256S, V310P, Q313A, M430Y, N436Y
light: not shown
notes: copies: 2 + 2
B8: in test [8], the Kd was determined as 10 nM.

B9: IgG1-F163 (antibody)
heavy: B4 heavy with Y254W, T256S, E258T, M430F, N436Y
light: not shown
notes: copies: 2 + 2
As to B9, the Kd in [7] was found to be 350 nM.

B10: IgG1-F455 (antibody)
heavy: B4 heavy with Y254M, T256S, E258T, P259V, T309Q, M430Y, N436Y
light: not shown
notes: copies: 2 + 2
On to B10, for which binding in test [9] was characterised by a dissociation constant (Kd) of 25 nM.

B11: IgG1-F376 (antibody)
heavy: B4 heavy with S241K, T256S, D272F, N288E, V310P, N436Y
light: not shown
notes: copies: 2 + 2
Consider B11, for which the Kd in [8] was 9.5 nM.

B12: IgG1-F311 (antibody)
heavy: B4 heavy with S241K, Y254W, T256S, E258T, V310P, M430F, N436Y
light: not shown
notes: copies: 2 + 2
In test [10], B12 returned a Kd of 29 nM.

B13: IgG1-F308 (antibody)
heavy: B4 heavy with S241K, Y254W, T256S, E258T, V310P, E384A, M430Y, N436Y
light: not shown
notes: copies: 2 + 2
B13 gave a Kd in test [10] of 18 nM.

B14: IgG1-F292 (antibody)
heavy: B4 heavy with S241K, T256S, E258T, V310P, E384A, M430I, N436Y
light: not shown
notes: copies: 2 + 2
The molecule B14 displayed a Kd in [10] of 20 nM.

B15: VH3/L (WT)-M73 (antibody)
heavy: QVQLQESGPGLVKPSETLSLTCAVSGHSISHDHAWSWVRQPPGEGLEWIGFISYSGITNYNPSLQGRVTISRDNSKNTLYLQMNSLRAEDTAVYYCARSLARTTAMDYWGEGTLVTVSSASTKGPSVFPLAPSSKSTSGGTAALGCLVKDYFPEPVTVSWNSGALTSGVHTFPAVLQSSGLYSLSSVVTVPSSNFGTQTYTCNVDHKPSNTKVDKTVERKSCVECPPCPAPPVAGPSVFLFPPKPKDTLMISRTPEVTCVVVDVSQEDPEVQFNWYVDGVEVHNAKTKPREEQFNSTFRVVSVLTVVHQDWLNGKEYKCKVSNKGLPAPIEKTISKTKGQPREPQVYTLPPSQEEMTKNQVSLTCLVKGFYPSDIAVEWESNGQPENNYKTTPPMLDSDGSFFLYSKLTVDKSRWQEGNVFSCSVMHEALHAHYTQKSLSLSP
light: not shown
notes: copies: 2 + 2
For B15, the Kd in [11] and in test [12] was 14 µM in each case.

B16: CLB8-IgG1 (antibody, V domains shown)
VH: EVQLVESGGKLLKPGGSLKLSCAASGFTFSSFAMSWFRQSPEKRLEWVAEISSGGSYTYYPDTVTGRFTISRDNAKNTLYLEMSSLRSEDTAMYYCARGLWGYYALDYWGQGTSVTVSS
VL: QIVLIQSPAIMSASPGEKVTMTCSASSSVSYMYWYQQKPGSSPRLLIYDTSNLASGVPVRFSGSGSGTSYSLTISRMEAEDAATYYCQQWSGYPYTFGGGTKLEIKR
notes: chimeric anti-IL-6 antibody
In the test with human IL-6 (TORAY) [13], B16 returned a Kd of 0.22 nM, a koff of 0.0008 s⁻¹ and a kon of 3.6e+06 M⁻¹ s⁻¹. In the test with human IL-6 (TORAY) [14], this molecule yielded a Kd of 0.18 nM, a koff of 0.00066 s⁻¹ and a kon of 3.7e+06 M⁻¹ s⁻¹.

B17: H16/L13-IgG1 (antibody, V domains shown)
VH: B16 VH with F32H, Y60H, D62H, Y103H
VL: B16 VL with N52H, L53H, Q88H, Y93H
notes: chimeric anti-IL-6 antibody, pH-dependent
In the case of B17, in the test with human IL-6 (TORAY) [13], binding was characterised by a dissociation constant (Kd) of 2.2 nM, the koff worked out at 0.0046 s⁻¹ and the kon amounted to 2.1e+06 M⁻¹ s⁻¹. In addition, in the test with human IL-6 (TORAY) [14], binding was put at a Kd of 16 nM, the koff came to 0.0059 s⁻¹ and the kon was found to be 370000 M⁻¹ s⁻¹.
